Where a chain is given by its changes, count along the chain named. Values belong to the binder of their own block, whether it stands above or below them.
Biological target: human TrkA receptor expressed in transfected 3T3 fibroblast cells (human), P04629
Assay: cell-based or functional assay

Sequence of human TrkA receptor expressed in transfected 3T3 fibroblast cells (human), P04629 (P04629 33-796): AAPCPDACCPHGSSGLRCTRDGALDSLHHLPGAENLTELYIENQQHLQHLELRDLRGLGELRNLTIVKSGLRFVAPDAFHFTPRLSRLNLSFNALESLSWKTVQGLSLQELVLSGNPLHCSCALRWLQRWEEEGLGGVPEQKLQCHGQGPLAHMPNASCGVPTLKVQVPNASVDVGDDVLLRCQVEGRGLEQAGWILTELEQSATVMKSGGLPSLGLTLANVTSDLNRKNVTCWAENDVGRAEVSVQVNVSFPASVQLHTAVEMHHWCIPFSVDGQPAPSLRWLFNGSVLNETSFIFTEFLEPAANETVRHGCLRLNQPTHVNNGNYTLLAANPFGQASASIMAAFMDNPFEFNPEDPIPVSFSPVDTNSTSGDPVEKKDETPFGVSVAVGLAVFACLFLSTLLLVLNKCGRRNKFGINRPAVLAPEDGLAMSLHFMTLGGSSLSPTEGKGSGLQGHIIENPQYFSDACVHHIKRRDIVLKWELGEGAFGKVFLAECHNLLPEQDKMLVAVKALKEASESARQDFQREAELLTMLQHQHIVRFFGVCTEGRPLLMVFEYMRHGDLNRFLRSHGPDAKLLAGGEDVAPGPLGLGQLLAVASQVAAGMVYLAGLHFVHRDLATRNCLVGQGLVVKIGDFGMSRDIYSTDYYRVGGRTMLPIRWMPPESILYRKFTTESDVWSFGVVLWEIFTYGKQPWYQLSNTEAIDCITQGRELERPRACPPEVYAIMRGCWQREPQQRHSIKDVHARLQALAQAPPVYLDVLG

- % Max Inhibition, pTrkA: 66%
- % Max stimulation, pTrkA: 27%
- EC50 (nM), pTrkA: 0.28 nM
- IC50 (nM), pTrkA: 0.12 nM
- pTrkA counts per second, 0.1 pM mAb, no NGF (counts per second): 277000
- pTrkA counts per second, 1 pM mAb, no NGF (counts per second): 398000
- pTrkA counts per second, 10 pM mAb, no NGF (counts per second): 335000
- pTrkA counts per second, 100 pM mAb, no NGF (counts per second): 486000
- pTrkA counts per second, 1 nM mAb, no NGF (counts per second): 935000
- pTrkA counts per second, 10 nM mAb, no NGF (counts per second): 1.16e+06
- pTrkA counts per second, 100 nM mAb, no NGF (counts per second): 994000
- pTrkA counts per second, 1 uM mAb, no NGF (counts per second): 1.02e+06
- pTrkA counts per second, NGF +0.1 pM mAb (counts per second): 2.56e+06
- pTrkA counts per second, NGF +1 pM mAb (counts per second): 2.79e+06
- pTrkA counts per second, NGF +10 pM mAb (counts per second): 2.68e+06
- pTrkA counts per second, NGF +100 pM mAb (counts per second): 2.01e+06
- pTrkA counts per second, NGF +1 nM mAb (counts per second): 1.35e+06
- pTrkA counts per second, NGF +10 nM mAb (counts per second): 1.2e+06
- pTrkA counts per second, NGF +100 nM mAb (counts per second): 1.44e+06
- pTrkA counts per second, NGF +1 uM mAb (counts per second): 971000
B1: mAb D (antibody, human IgG1, kappa)
heavy: EVQLVESGGGLVKPGGSLRLSCAASGFTFSGVSINWVRQAPGKGLEWVSSETTSSGTIYYADSVKGRFTISRDNAKNSLYLQMNSLRAEDTAVYYCARSYYYGMDVWGQGTTVTVSSASTKGPSVFPLAPSSKSTSGGTAALGCLVKDYFPEPVTVSWNSGALTSGVHTFPAVLQSSGLYSLSSVVTVPSSSLGTQTYICNVNHKPSNTKVDKRVEPKSCDKTHTCPPCPAPEAEGAPSVFLFPPKPKDTLMISRTPEVTCVVVDVSHEDPEVKFNWYVDGVEVHNAKTKPREEQYNSTYRVVSVLTVLHQDWLNGKEYKCKVSNKALPSSIEKTISKAKGQPREPQVYTLPPSREEMTKNQVSLTCLVKGFYPSDIAVEWESNGQPENNYKTTPPVLDSDGSFFLYSKLTVDKSRWQQGNVFSCSVMHEALHNHYTQKSLSLSPGK
light: DIVMTQTPLSSPVTLGQPASISCRSSQSLVHRAGNTYLSWLQQRPGQPPRLLIYKISNRFSGVPDRFSGSGAGTDFTLKISRVEAEDVGVYYCMQARQFPLTFGGGTKVEIKRTVAAPSVFIFPPSDEQLKSGTASVVCLLNNFYPREAKVQWKVDNALQSGNSQESVTEQDSKDSTYSLSSTLTLSKADYEKHKVYACEVTHQGLSSPVTKSFNRGEC

- % Inh., Human pTrkA: 56%
- % Max Inhibition, pTrkA: 57%
- % Max stimulation, pTrkA: 31%
- EC50 (nM), pTrkA: 0.29 nM
- IC50 (nM), pTrkA: 0.48 nM
- pTrkA counts per second, 0.1 pM mAb, no NGF (counts per second): 178000
- pTrkA counts per second, 1 pM mAb, no NGF (counts per second): 181000
- pTrkA counts per second, 10 pM mAb, no NGF (counts per second): 194000
- pTrkA counts per second, 100 pM mAb, no NGF (counts per second): 264000
- pTrkA counts per second, 1 nM mAb, no NGF (counts per second): 487000
- pTrkA counts per second, 10 nM mAb, no NGF (counts per second): 600000
- pTrkA counts per second, 100 nM mAb, no NGF (counts per second): 605000
- pTrkA counts per second, 1 uM mAb, no NGF (counts per second): 483000
- pTrkA counts per second, NGF +0.1 pM mAb (counts per second): 1.85e+06
- pTrkA counts per second, NGF +1 pM mAb (counts per second): 2.19e+06
- pTrkA counts per second, NGF +10 pM mAb (counts per second): 2.76e+06
- pTrkA counts per second, NGF +100 pM mAb (counts per second): 2.78e+06
- pTrkA counts per second, NGF +1 nM mAb (counts per second): 838000
- pTrkA counts per second, NGF +10 nM mAb (counts per second): 800000
- pTrkA counts per second, NGF +100 nM mAb (counts per second): 739000
- pTrkA counts per second, NGF +1 uM mAb (counts per second): 630000
B2: mAb E (antibody, human IgG1, kappa)
heavy: B1 heavy
light: B1 light with A33Q

Reference: US20190263932A1
